Reference: IntAct's records for PubMed 26824392

Target: rab8a_human RAB8A (UniProt P61006)
Sequence (P61006 whole entry): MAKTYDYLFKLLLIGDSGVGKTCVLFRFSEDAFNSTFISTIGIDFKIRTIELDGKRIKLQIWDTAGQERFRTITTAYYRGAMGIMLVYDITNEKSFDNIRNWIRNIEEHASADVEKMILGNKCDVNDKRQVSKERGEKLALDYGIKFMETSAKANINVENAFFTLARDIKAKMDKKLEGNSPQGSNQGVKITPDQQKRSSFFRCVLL

Question: For “Leucine-rich repeat serine/threonine-protein kinase 2 (Homo sapiens), Q5S007 R1441C”, which “effect of a mutation on the interaction” value is on record?
Answer: The value was “with no effect”.
